B1: PI4K2A (parent)
chain: FVKDPQGRIIAVFKPKNEEPYGHL
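Note: lentivirally expressed fusions sorted by FACS into six bins by GFP to DsRed ratio, PSI derived from sequencing read proportions per bin multiplied by bin number.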

Variants of: B1
Test: protein stability index of a GFP-peptide fusion (GPS, HEK-293T) (PSI 1-6); higher = more stable
Settings: c terminus: a fixed tail appended
In the case of FVKDPQGRIIAVFKPKNIEPYGHL [E18I], the protein stability index is reported as 2.22. Work on FVKDPQGRIIAVFKPKNTEPYGHL [E18T] yielded a protein stability index of 1.35. FVKDPQGRIIAVFKPKNREPYGHL [E18R] gave a protein stability index of 2.1. FVKDPQGRIIAVFKPKNSEPYGHL [E18S] gave a protein stability index of 2.2. Work on FVKDPQGRIIAVFKPKNFEPYGHL [E18F] yielded a protein stability index of 1.96. With FVKDPQGRIIAVFKPKNHEPYGHL [E18H] the protein stability index was 1.62. In the case of FVKDPQGRIIAVFKPKNDEPYGHL [E18D], the protein stability index is reported as 2.16. Work on FVKDPQGRIIAVFKPKNMEPYGHL [E18M] yielded a protein stability index of 2.08. FVKDPQGRIIAVFKPKNNEPYGHL [E18N] gave a protein stability index of 1.48. With FVKDPQGRIIAVFKPKNLEPYGHL [E18L] the protein stability index was 3.88. With FVKDPQGRIIAVFKPKNKEPYGHL [E18K] the protein stability index was 2.04. Variant FVKDPQGRIIAVFKPKNPEPYGHL [E18P] has a protein stability index of 1.79. Variant FVKDPQGRIIAVFKPKNYEPYGHL [E18Y] has a protein stability index of 2.98. With FVKDPQGRIIAVFKPKNVEPYGHL [E18V] the protein stability index was 2.23. FVKDPQGRIIAVFKPKNCEPYGHL [E18C] gave a protein stability index of 2.02. In the case of FVKDPQGRIIAVFKPKNGEPYGHL [E18G], the protein stability index is reported as 3.17. Work on FVKDPQGRIIAVFKPKNQEPYGHL [E18Q] yielded a protein stability index of 1.8. FVKDPQGRIIAVFKPKNAEPYGHL [E18A] showed a protein stability index of 2.39. FVKDPQGRIIAVFKPKNEEPYAHL [G22A] gave a protein stability index of 1.66. With FVKDPQGRIIAVFKPKNEEPYWHL [G22W] the protein stability index was 1.72. Variant FVKDPQGRIIAVFKPKNEEPYQHL [G22Q] has a protein stability index of 2.09. For FVKDPQGRIIAVFKPKNEEPYMHL [G22M], the protein stability index was 2.1. In the case of FVKDPQGRIIAVFKPKNEEPYYHL [G22Y], the protein stability index is reported as 1.48. FVKDPQGRIIAVFKPKNEEPYSHL [G22S] showed a protein stability index of 2.65. FVKDPQGRIIAVFKPKNEEPYKHL [G22K] gave a protein stability index of 2.44. FVKDPQGRIIAVFKPKNEEPYTHL [G22T] gave a protein stability index of 1.41. FVKDPQGRIIAVFKPKNEEPYNHL [G22N] showed a protein stability index of 1.73. FVKDPQGRIIAVFKPKNEEPYFHL [G22F] gave a protein stability index of 1.81. In the case of FVKDPQGRIIAVFKPKNEEPYHHL [G22H], the protein stability index is reported as 1.88. FVKDPQGRIIAVFKPKNEEPYRHL [G22R] gave a protein stability index of 2.37. Work on FVKDPQGRIIAVFKPKNEEPYIHL [G22I] yielded a protein stability index of 1.74. FVKDPQGRIIAVFKPKNEEPYLHL [G22L] gave a protein stability index of 2.03. FVKDPQGRIIAVFKPKNEEPYPHL [G22P] showed a protein stability index of 2.63. Variant FVKDPQGRIIAVFKPKNEEPYVHL [G22V] has a protein stability index of 1.55. Variant FVKDPQGRIIAVFKPKNEEPYCHL [G22C] has a protein stability index of 1.93. With FVKDPQGRIIAVFKPKNEEPYDHL [G22D] the protein stability index was 1.74. FVKDPQGRIIAVFKPKNEEPYEHL [G22E] showed a protein stability index of 2.02. Variant FVKDPQGRIIAVFKPCNEEPYGHL [K16C] has a protein stability index of 1.63. Variant FVKDPQGRIIAVFKPWNEEPYGHL [K16W] has a protein stability index of 2.23. Work on FVKDPQGRIIAVFKPLNEEPYGHL [K16L] yielded a protein stability index of 1.66. Variant FVKDPQGRIIAVFKPPNEEPYGHL [K16P] has a protein stability index of 1.7. FVKDPQGRIIAVFKPENEEPYGHL [K16E] showed a protein stability index of 2.3. Work on FVKDPQGRIIAVFKPQNEEPYGHL [K16Q] yielded a protein stability index of 2.23. Work on FVKDPQGRIIAVFKPMNEEPYGHL [K16M] yielded a protein stability index of 1.98. With FVKDPQGRIIAVFKPTNEEPYGHL [K16T] the protein stability index was 1.42. In the case of FVKDPQGRIIAVFKPSNEEPYGHL [K16S], the protein stability index is reported as 1.48. Work on FVKDPQGRIIAVFKPNNEEPYGHL [K16N] yielded a protein stability index of 1.68. FVKDPQGRIIAVFKPGNEEPYGHL [K16G] showed a protein stability index of 1.46. Work on FVKDPQGRIIAVFKPRNEEPYGHL [K16R] yielded a protein stability index of 1.77. FVKDPQGRIIAVFKPYNEEPYGHL [K16Y] showed a protein stability index of 2.44. FVKDPQGRIIAVFKPDNEEPYGHL [K16D] showed a protein stability index of 2.22. Variant FVKDPQGRIIAVFKPFNEEPYGHL [K16F] has a protein stability index of 2.44. FVKDPQGRIIAVFKPANEEPYGHL [K16A] showed a protein stability index of 1.91. For FVKDPQGRIIAVFKPINEEPYGHL [K16I], the protein stability index was 2.31. In the case of FVKDPQGRIIAVFKPHNEEPYGHL [K16H], the protein stability index is reported as 1.97. Work on FVKDPQGRIIAVFKPVNEEPYGHL [K16V] yielded a protein stability index of 2.79. FVKDPQGRIIAVFKPKNEEPMGHL [Y21M] gave a protein stability index of 1.54. FVKDPQGRIIAVFKPKNEEPGGHL [Y21G] gave a protein stability index of 1.65. FVKDPQGRIIAVFKPKNEEPKGHL [Y21K] gave a protein stability index of 2.04. FVKDPQGRIIAVFKPKNEEPRGHL [Y21R] gave a protein stability index of 2.11. For FVKDPQGRIIAVFKPKNEEPHGHL [Y21H], the protein stability index was 2.59. In the case of FVKDPQGRIIAVFKPKNEEPFGHL [Y21F], the protein stability index is reported as 2.21. FVKDPQGRIIAVFKPKNEEPEGHL [Y21E] showed a protein stability index of 1.44. With FVKDPQGRIIAVFKPKNEEPTGHL [Y21T] the protein stability index was 1.74. With FVKDPQGRIIAVFKPKNEEPAGHL [Y21A] the protein stability index was 1.57. Variant FVKDPQGRIIAVFKPKNEEPWGHL [Y21W] has a protein stability index of 2.26. With FVKDPQGRIIAVFKPKNEEPSGHL [Y21S] the protein stability index was 1.72. FVKDPQGRIIAVFKPKNEEPNGHL [Y21N] gave a protein stability index of 1.5. FVKDPQGRIIAVFKPKNEEPLGHL [Y21L] gave a protein stability index of 2.85. With FVKDPQGRIIAVFKPKNEEPCGHL [Y21C] the protein stability index was 2. For FVKDPQGRIIAVFKPKNEEPDGHL [Y21D], the protein stability index was 1.85. For FVKDPQGRIIAVFKPKNEEPIGHL [Y21I], the protein stability index was 2.91. FVKDPQGRIIAVFKPKNEEPPGHL [Y21P] gave a protein stability index of 2.17. With FVKDPQGRIIAVFKPKNEEPQGHL [Y21Q] the protein stability index was 2.53. Variant FVKDPQGRIIAVFKPKNEEPVGHL [Y21V] has a protein stability index of 1.65. In the case of FVKDPQGRIIAVFKPKNEELYGHL [P20L], the protein stability index is reported as 1.55. Variant FVKDPQGRIIAVFKPKNEEDYGHL [P20D] has a protein stability index of 2.05. Work on FVKDPQGRIIAVFKPKNEEFYGHL [P20F] yielded a protein stability index of 1.94. Variant FVKDPQGRIIAVFKPKNEEYYGHL [P20Y] has a protein stability index of 1.91. FVKDPQGRIIAVFKPKNEEEYGHL [P20E] gave a protein stability index of 1.75. With FVKDPQGRIIAVFKPKNEEGYGHL [P20G] the protein stability index was 2.05. With FVKDPQGRIIAVFKPKNEETYGHL [P20T] the protein stability index was 2.01. Work on FVKDPQGRIIAVFKPKNEERYGHL [P20R] yielded a protein stability index of 1.7. In the case of FVKDPQGRIIAVFKPKNEEIYGHL [P20I], the protein stability index is reported as 1.76. For FVKDPQGRIIAVFKPKNEEMYGHL [P20M], the protein stability index was 2.65. Variant FVKDPQGRIIAVFKPKNEEAYGHL [P20A] has a protein stability index of 2.94. For FVKDPQGRIIAVFKPKNEEKYGHL [P20K], the protein stability index was 1.2. With FVKDPQGRIIAVFKPKNEECYGHL [P20C] the protein stability index was 1.78. With FVKDPQGRIIAVFKPKNEENYGHL [P20N] the protein stability index was 1.94. Work on FVKDPQGRIIAVFKPKNEEQYGHL [P20Q] yielded a protein stability index of 1.7. With FVKDPQGRIIAVFKPKNEEVYGHL [P20V] the protein stability index was 1.16. Work on FVKDPQGRIIAVFKPKNEESYGHL [P20S] yielded a protein stability index of 2. With FVKDPQGRIIAVFKPKNEEWYGHL [P20W] the protein stability index was 2.05. With FVKDPQGRIIAVFKPKNEEHYGHL [P20H] the protein stability index was 1.74.

From the supplement of paper PMC10567573
